The source of these data is patent US12612650B2, “Methods for improved homologous recombination and compositions thereof” (LIFE TECHNOLOGIES CORPORATION, priority 2017, dated 2026).

Assay type in all cases: cell-based, human
One data set relates to LRRK2 genomic locus. Kind of data set: Junction PCR and sequencing of clonal A549 cells, N-terminal tagging of LRRK2. The protocol:
(§1) 293FT or A549 cells were maintained in DMEM medium supplemented with 10% FBS. On the day of transfection, cells were detached from the culture flask and counted. For each electroporation, 1.5 μg of Cas9 protein and 360 ng of gRNA were added to Resuspension Buffer R to a final volume of 7 μl, but the total volume of Cas9 protein plus gRNA added was less than 1 μl. Upon mixing, the sample was incubated at room temperature for 5 to 10 minutes to form Cas9 RNPs complex. Meanwhile, aliquots of 1×10^6 cells were washed once with DPBS without Ca^2+ and Mg^2+ and the cell pellets were resuspended in 50 μl of Resuspension Buffer R. A 5 μl aliquot of cell suspension was then mixed with 7 μl of Cas9 RNPs, followed by addition of 1 μl indicated amount of donor DNA. 10 μl of cell suspension containing Cas9 RNP and donor was applied to NEON® electroporation (Thermo Fisher Scientific, cat. no. MPK5000) with voltage set at 1150V, pulse width set at 20 ms, and the number of pulses set at 2, respectively. The electroporated cells were transferred to a 48-well plate containing 0.5 ml culture media. Samples without either gRNA or donor DNA served as controls. At 48 hours post transfection, the cells were analyzed by flow cytometry. Alternatively, the genomic loci were PCR-amplified with the corresponding primers. The resulting PCR fragments were analyzed using the GENEART® Genomic Cleavage Detection assay. The edited cells were further subjected to limiting dilution, followed by clonal cell isolation. The clonal cells were characterized by PCR amplification of both the N- and C-terminal junctions and sequencing. The sequencing data were analyzed using VECTOR NTI ADVANCE® 11.5 software (Thermo Fisher Scientific).
Besides beta-actin, we also evaluated a different protein in a different cell line. LRRK2 protein is related to Parkinson's disease with a molecular weight of approximately 280 kd. A gRNA was designed to target the LRRK2 genomic locus near the start codon. Approximately 35 nt homology arms were added to a sequence-verified promoterless puromycin-P2A-EmGFP DNA fragment via PCR amplification. The Cas9 RNP and donor DNA were co-delivered into A549 cells via NEON® electroporation using 1050 volts, 30 milliseconds and 2 pulses. Because LRRK2 is relatively low abundant protein, we were not able to detect EmGFP signal inside the cells. […] To examine the integration efficiency, the cells were treated with 0.75 μg/ml puromycin for 7 days at 48 hours post transfection, followed by limiting dilution and clonal cell isolation. The junctions were analyzed by PCR using one inner primer and one outer primer, or a pair of outer primers. The resulting PCR products were analyzed by sequencing to determine the precision of integration. […]

The subject of data set [1] is genomic locus of beta-actin. Description: OFP-positive cells by flow cytometry after electroporation of Cas9 RNP and donor DNA into 293FT cells. The protocol: as §1
To evaluate the strategy of tagging endogenous protein, we fused the OFP gene to the N-terminus of beta-actin. Beta-actin is one of the most abundant proteins in eukaryotes, so it is easy to monitor using fluorescence microscopy. A gRNA was designed and synthesized to target the genomic locus of beta-actin near the ATG start codon (Table 12) and then complexed with Cas9 nuclease to form RNPs. The relevant 35 nt homology arms were added to a sequence-verified promoterless puromycin-P2A-OFP DNA fragment by PCR amplification. The resulting donor PCR fragments were purified using PureLink™ PCR Purification Kit and then concentrated using a speed-vac to a final concentration of around 1 μg/μl. To examine the effect of donor dosage on HDR efficient, we kept the amount of Cas9 RNP constant and varied the amount of donor DNA. The Cas9 RNP and donor DNA were transfected into 293 FT via electroporation. At 48 hours post transfection, the cells were analyzed by fluorescence microscope. When the cells were transfected with Cas9 RNP alone or Cas9 protein with donor DNA, no OFP-positive cells were detected, whereas OFP-positive cells were observed when cells were transfected with Cas9 RNP and donor DNA. The percentages of OFP-positive cells were determined by flow cytometric analysis. Without selection, the percentage of OFP-positive cells increased from approximately 5% to 20% when the amount of donor DNA increased from 25 ng to 500 ng (FIG. 2A). The optimal amount of donor DNA was around 500 ng per reaction. On the other hand, after treatment of transfected cells with 1 μg/ml puromycin for 7 days, approximately 80% of cells were OFP-positive. There was no significant difference in the percentage of OFP-positive cells between different amounts of donor DNA (FIG. 2A). Next, we examined the effect of homology arm length on HDR efficiency. Various lengths of homology arms were added to the promoterless puromycin-P2A-OFP DNA fragment by PCR amplification. As depicted in FIG. 2B, when the homology arm length increased from 12 nt to 80 nt, the percentage of OFP-positive cells increased and then plateaued at around 35 nt.
Traditionally, a plasmid donor was used to incorporate large DNA molecules into the genome. […]
On the technique in general: Flow cytometry measures light scatter and fluorescence of single cells or particles in a stream.

For another data set, the system named is beta-actin locus. Kind of data set: Junction PCR and sequencing of clonal 293FT cells, integration at beta-actin locus. The protocol:
as §1
To examine the identity of integration sites, cells transfected with Cas9 RNP and donor DNA were subjected to puromycin selection, limiting dilution, and clonal cell isolation. A total of 48 colonies were randomly picked for junction PCR analysis. […] All the other 47 colonies gave rise to PCR products for both N- and C-terminal junctions when one outer primer and one inner primer were used. The PCR product was also observed when a pair of outer primers was used with the size of about 420 bp, which corresponded to the genomic DNA fragment without an insert. The reason why a large PCR product containing the insert was not observed was because the smaller DNA fragment without the insert was preferentially amplified. […] The other 18% of clonal cells also contained the insert but had mutations at the junction areas (FIG. 3A(2)). Most of the mutations were deletion and insertion. Sometimes a duplicate sequence of a partial or full-length homology arm was inserted at the junction. At the C-terminal junction, approximately 78% of the clonal cells harbored precise HDR (FIG. 3B(1)) whereas the other 22% of cells had Indel formation at the junction (FIG. 3B(2)). Rarely, a relatively large piece of donor DNA (up to 165 nt) was deleted at the C-terminal junction. Overall, all the clonal cells contained one copy of donor DNA at the right genomic locus in one of the alleles with 68% of cells harbored precise HDR at both N- and C-termini and 32% of cells harbored imperfect HDR at either N- or C-terminus or both. […] Instead, approximately 80% of the clones had one “A” insertion at the Cas9 cleavage site and 20% of the clones harbored more than 2 nt deletion. Only one wild type clone was detected at the second allele (FIG. 3C). Most of the clones expressed both wild type beta-actin and OFP fusion of beta-actin as confirmed by Western Blot analysis.
To characterize each clonal cell in the stable pool, we performed limiting dilution and clonal cell isolation. The junctions of integration were analyzed by PCR and sequencing. As depicted in FIGS. 8B and 8C, approximately 88% of clonal cells harbored precise integration at N-terminal junction whereas 12% of clonal cells had some extra sequences inserted at the junction. […]

Setting [2] is: LRRK2, N-terminus, A549 clonal cells.
The mark [3] stands for this setting: Beta-actin, N-terminus, 293FT clonal cells.

Several values for one entry are separate records, joined by “and”; a condition that tells them apart may be missing. Equal entries are not always repeated. Marks after values point to notes of the source that are not given here.

On to “puromycin-P2A-EmGFP: donor DNA, 1.4 kb: promoterless puromycin-P2A-EmGFP fragment with approximately 35 nt homology arms to LRRK2 locus”, for which, in the data set with LRRK2 genomic locus (setting [2]), the “Efficiency at allele 1 HDR/Indel” value amounted to 0% and the “Efficiency at allele 1 Precise HDR” value stood at 100%. Moreover, in the data set on LRRK2 genomic locus (LRRK2, N-terminus, A549 clonal cells, 7 nt deletion), the “Efficiency at allele 2 No HDR/Indel” value turned out to be 80%. The molecule further returned an integration efficiency with LRRK2 genomic locus (all 86 colonies contained at least one copy of the insert) of 100%.

B1: puromycin-P2A-OFP: donor DNA, 1.4 kb: promoterless puromycin-P2A-OFP fragment with 35 nt homology arms to the beta-actin locus (nucleic acid)
DNA: CACAGCGCGCCCGGCTATTCTCGCAGCTCACCATGACCGAGTACAAGCCCACAGTGCGGCTGGCCACCAGGGACGATGTGCCTAGAGCTGTGCGGACACTGGCCGCTGCCTTCGCCGATTACCCTGCCACCAGACACACCGTGGACCCCGACAGACACATCGAGAGAGTGACCGAGCTGCAGGAACTGTTTCTGACCAGAGTGGGCCTGGACATCGGCAAAGTGTGGGTGGCCGATGATGGCGCCGCTGTGGCTGTGTGGACAACCCCTGAGTCTGTGGAAGCCGGCGCTGTGTTCGCCGAGATCGGACCTAGAATGGCCGAGCTGAGCGGCTCTAGACTGGCTGCCCAGCAGCAGATGGAAGGCCTGCTGGCCCCCCACAGACCTAAAGAGCCTGCCTGGTTTCTGGCCACCGTGGGCGTGTCACCTGACCACCAGGGCAAGGGACTGGGATCTGCTGTGGTGCTGCCTGGCGTGGAAGCTGCTGAAAGGGCTGGCGTGCCCGCCTTCCTGGAAACAAGCGCCCCCAGAAACCTGCCCTTCTACGAGAGACTGGGCTTCACCGTGACCGCCGACGTGGAAGTGCCTGAGGGCCCTAGAACCTGGTGCATGACCAGAAAGCCTGGCGCCGGAAGCGGAGCTACTAACTTCAGCCTGCTGAAGCAGGCTGGAGACGTGGAGGAGAACCCTGGACCTAACCTGAGCAAAAACGTGAGCGTGAGCGTGTATATGAAGGGGAACGTCAACAATCATGAGTTTGAGTACGACGGGGAAGGTGGTGGTGATCCTTATACAGGTAAATATTCCATGAAGATGACGCTACGTGGTCAAAATTCCCTACCCTTTTCCTATGATATCATTACCACGGCATTTCAGTATGGTTTCCGCGTATTTACAAAATACCCTGAGGGAATTGTTGACTATTTTAAGGATTCGCTTCCCGACGCATTCCAGTGGAACAGACGAATTGTGTTTGAAGATGGTGGAGTACTAAACATGAGCAGTGATATCACATATAAAGATAATGTTCTGCATGGTGACGTCAAGGCTGAGGGAGTGAACTTCCCGCCGAATGGGCCAGTGATGAAGAATGAAATTGTGATGGAGGAACCGACTGAAGAAACATTTACTCCAAAAAACGGGGTTCTTGTTGGCTTTTGTCCCAAAGCGTACTTACTTAAAGATGGTTCCTATTACTATGGAAATATGACAACATTTTACAGATCCAAGAAATCTGGCCAGGCACCTCCTGGGTATCACTTTGTTAAGCATCGTCTCGTCAAGACCAATGTGGGACATGGATTTAAGACGGTTGAGCAGACTGAATATGCCACTGCTCATGTCAGTGATCTTCCCAAATTCGAAGCTGATGATGATATCGCCGCGCTCGTCGTCGACAACGG
modifications: misc_feature 1..1402 Description of Unknown: Beta Actin sequence
notes: donor DNA, 1.4 kb: promoterless puromycin-P2A-OFP fragment with 35 nt homology arms to the beta-actin locus
As for B1, the “percentage of OFP-positive cells” value in data set [1] (after 1 μg/ml puromycin for 7 days) was “approximately 80%”. Besides, the “% of functional Cells” value in data set [1] (determined by flow cytometry) was determined as 80%^a. Moreover, the “homology arm length at which percentage of OFP-positive cells plateaued” value in data set [1] (homology arm length 12 nt to 80 nt) was “around 35 nt”. In addition, the “optimal amount of donor DNA” value in data set [1] (without selection) is reported as “around 500 ng per reaction”. For the same molecule, the “percentage of OFP-positive cells” value in data set [1] (without selection, 25 ng donor DNA, 48 hours post transfection) is reported as “approximately 5%”. In addition, in data set [1] (without selection, 500 ng donor DNA, 48 hours post transfection), the “percentage of OFP-positive cells” value was around 20%. In the data set on beta-actin locus (setting [3]), the “Efficiency at allele 1 HDR/Indel” value is 32%, the “Efficiency at allele 2 No HDR/Indel” value was found to be 100% and the “Efficiency at allele 2 Precise HDR” value is 0%. In the data set with beta-actin locus (beta-actin locus, 293FT), the “clonal cells with Indel formation / small mutations at the C-terminal junction” value is reported as 22%, the “clonal cells with mutations or extra sequences at the N-terminal junction” value is recorded as 18%, the “clonal cells with precise HDR / correct junction at the C-terminal junction” value was “approximately 78%” and the “clonal cells with precise HDR at the N-terminal junction” value is listed as “approximately 82%”. Further, in the data set with beta-actin locus (second allele), the “clones wild type (wt)” value is on record as 2%. Moreover, in the data set with beta-actin locus (second allele (no insert)), the “clones with more than 2 nt deletion” value was 18% and 20%; the “clones with one 'A' insertion at the Cas9 cleavage site” value was “approximately 80%”.
